Results reported in patent US20230279091A1 (published 2023).

B1: humanized scFv 16-22-H05-sc02 (STR, structural graft) (scFv)
scFv: MDIQMTQSPSSLSASVGDRVTIKCQASQSIFSGLAWYQQKPGKAPKLLIYGASKLASGVPSRFSGSGSGTEFTLTISGLQPADFATYYCQSYYYSSSSSDGSYAFGGGTKLTVLGGGGGSGGGGSGGGGSGGGGSEVQLVESGGGLVQPGGSLRLSCKASGIDFNNYGIGWVRQAPGKGLEWITYIYPGFAITNFANSVKGRFTISSDNSKNTVYLQMNSLRAEDTAVYYCARDPVYATSSGYFDLWGQGTLVTVSS
notes: also called 16-22-H5-sc02; 16-22-H04-sc02 [sic]
B2: humanized scFv 16-22-H05-sc04 (CDR/STR) (scFv)
scFv: MDIQMTQSPSSLSASVGDRVTITCQASQSIFSGLAWYQQKPGKAPKLLIYGASKLASGVPSRFSGSGSGTEFTLTISGLQPADFATYYCQSYYYSSSSSDGSYAFGGGTKLTVLGGGGGSGGGGSGGGGSGGGGSEVQLVESGGGLVQPGGSLRLSCKASGIDFNNYGIGWVRQAPGKGLEWITYIYPGFAITNFANSVKGRFTISSDNSKNTVYLQMNSLRAEDTAVYYCARDPVYATSSGYFDLWGQGTLVTVSS
notes: also called 16-22-05-sc04

Key:
[1] = biological target: T1, recombinant human TNFα (human, UniProt P01375 77-233); test: cell-based or functional assay
T1 sequence (P01375 77-233 limits assumed): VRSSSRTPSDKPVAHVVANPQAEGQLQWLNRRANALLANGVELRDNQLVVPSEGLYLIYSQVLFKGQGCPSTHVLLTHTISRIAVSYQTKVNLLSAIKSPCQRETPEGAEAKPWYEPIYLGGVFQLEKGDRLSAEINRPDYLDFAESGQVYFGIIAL

[2] = biological target: T1, recombinant human TNFα; test: inhibition ELISA, blocking of biotinylated TNFα binding to coated TNFRI-Fc
Text: For the first inhibition ELISA, the extracellular domain of TNFRI fused to the Fc region of human IgG (R&D Systems, Cat. No. 372-RI) was coated on a 96-well Maxisorp ELISA at a concentration of 0.5 pg/ml. […] All subsequent steps were identical for both assays.

[3] = biological target: B1; test: competition ELISA: unlabeled TNFβ against biotinylated TNFα on coated scFv
Experimental: (§1) For this purpose, the scFvs were coated on a 96-well Maxisorp ELISA plate at a concentration of 1 pg/ml. […] To control precision of the response, the dose-response curves were analyzed in duplicate.

[4] = biological target: B2; test: as above
Experimental: as §1

Row | Binder | L929 assay, rel. IC50 [1] | L929 assay, rel. IC90 [1] | rel. IC50 (IC50 Infliximab/IC50 scFv, ng/mL) [2] [ratio] | rel. IC90 (IC90 Infliximab/IC90 scFv, ng/mL) [2] [ratio] | IC50 [3] [ng/mL] | IC50 [4] [ng/mL]
1 | B1 | 13.1 ratio IC50 Infliximab (ng/ml)/IC50 scFv (ng/mL) | 12.6 ratio IC90 Infliximab (ng/ml)/IC90 scFv (ng/mL) | 3.5 | 2.4 |  | 
2 | B2 | 14.6 ratio IC50 Infliximab (ng/ml)/IC50 scFv (ng/mL) | 13.1 ratio IC90 Infliximab (ng/ml)/IC90 scFv (ng/mL) | 2.8 | 2.1 |  | 
3 | recombinant human TNFβ (ligand, UniProt P01374 35-205, looked up) LPGVGLTPSAAQTARQHPKMHLAHSTLKPAAHLIGDPSKQNSLLWRANTDRAFLQDGFSLSNNSLLVPTSGIYFVYSQVVFSGKAYSPKATSSPLYLAHEVQLFSSQYPFHVPLLSSQKMVYPGLQEPWLHSMYHGAAFQLTQGDQLSTHTDGIPHLVLSPSTVFFGAFAL |  |  |  |  | > 1.25 | > 1.25
